Our source for the % dead cells over background of untreated cells, L1210/0 on anti-Fas coated plates and % dead cells over background of untreated cells, L1210/DDP on anti-Fas coated plates values is patent publication US7381413.

In the experiment the target is Fas (CD95) on L1210 and L1210/DDP cells (UniProt P25446). Description: cell-based or functional assay.
Chain of UniProt P25446 (P25446 22-327 limits assumed): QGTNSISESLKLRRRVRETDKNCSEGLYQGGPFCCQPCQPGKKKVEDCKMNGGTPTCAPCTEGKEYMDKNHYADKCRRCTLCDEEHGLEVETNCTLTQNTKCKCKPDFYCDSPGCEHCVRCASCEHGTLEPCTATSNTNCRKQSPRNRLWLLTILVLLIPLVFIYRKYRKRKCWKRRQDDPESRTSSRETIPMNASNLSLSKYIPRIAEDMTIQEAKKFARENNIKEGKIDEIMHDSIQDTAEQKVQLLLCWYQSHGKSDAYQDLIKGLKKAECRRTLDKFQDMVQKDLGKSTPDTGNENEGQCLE

With anti-Fas antibody Jo2.2 (Pharmingen), the % dead cells over background of untreated cells, L1210/0 on anti-Fas coated plates came to 80% and the % dead cells over background of untreated cells, L1210/DDP on anti-Fas coated plates was determined as 46.6%.
